According to WO2021218879A1 (dated 2021):
Like-named read-outs stand apart in the source and are kept apart here.

Experiments:
[1] = target: T1, SARS-CoV-2 RBD protein (SARS-CoV-2, UniProt P0DTC2 319-541)
[2] = target: T2, SARS-CoV-2-S1-his protein (SARS-CoV-2, UniProt P0DTC2 16-685)
[3] = target: T3, SARS-CoV-2 S full-length protein on pseudovirus (SARS-CoV-2, UniProt P0DTC2 14-1273); experiment: cell-based or functional assay
[4] = target: T4, SARS-CoV-2 S1 protein on HF-nCoV-SPIKE-8D3 cells (SARS-CoV-2, UniProt P0DTC2 14-1273); experiment: flow cytometry on HF-nCoV-SPIKE-8D3 cells, titrated antibody
T4 construct: whole, on cells

[5] = target: T2, SARS-CoV-2-S1-his protein; experiment: ELISA, S1 protein coated at varied concentration, antibody at 1 ug/mL
[6] = target: T5, SARS-CoV-2 ECD protein (SARS-CoV-2, UniProt P0DTC2 14-1213); experiment: ELISA, ECD protein coated at varied concentration, antibody at 1 ug/mL
T5 construct: extracellular domain

[7] = target: T5, SARS-CoV-2 ECD protein; experiment: as above; remark: listed apart in the source
[8] = target: T2, SARS-CoV-2-S1-his protein; experiment: ELISA, S1 protein coated at varied concentration, antibody at 1 ug/mL; remark: listed apart in the source
[9] = target: T1, SARS-CoV-2 RBD protein; experiment: BLI (OctetRED96e), biotinylated RBD on SA sensor, antibody in solution
[10] = target: T6, CD32a-AVI-His(R131)+BirA protein (UniProt P12318 36-218); experiment: ELISA, biotinylated CD32a captured on avidin, titrated antibody
T6 sequence: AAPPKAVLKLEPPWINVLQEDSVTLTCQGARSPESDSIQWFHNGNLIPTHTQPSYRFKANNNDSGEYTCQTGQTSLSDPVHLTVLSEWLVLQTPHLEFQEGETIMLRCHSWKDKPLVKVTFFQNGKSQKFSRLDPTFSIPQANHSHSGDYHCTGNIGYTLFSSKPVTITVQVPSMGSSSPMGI

[11] = target: T1, SARS-CoV-2 RBD protein; experiment: ELISA, RBD protein coated at varied concentration, antibody at 1 ug/mL
[12] = target: T7, CD32b-AVI-HIS+BirA protein (UniProt P31994 43-217); experiment: ELISA, biotinylated CD32b captured on avidin, titrated antibody
T7 sequence: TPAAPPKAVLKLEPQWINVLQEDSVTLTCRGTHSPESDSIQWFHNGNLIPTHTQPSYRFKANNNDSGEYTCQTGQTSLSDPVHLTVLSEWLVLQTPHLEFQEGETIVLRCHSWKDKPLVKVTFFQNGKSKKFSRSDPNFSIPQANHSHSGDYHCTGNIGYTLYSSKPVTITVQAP

[13] = target: T2, SARS-CoV-2-S1-his protein; experiment: BLI (OctetRED96e), biotinylated S1 on SA sensor, antibody in solution
[14] = target: T3, SARS-CoV-2 S full-length protein on …; experiment: cell-based or functional assay; remark: listed apart in the source
[15] = target: CD16a-AVI-His(V158)+BirA protein (UniProt P08637 17-208); experiment: ELISA, biotinylated CD16a captured on avidin, titrated antibody
Chain of CD16a-AVI-His(V158)+BirA protein (P08637 17-208 F176V limits assumed): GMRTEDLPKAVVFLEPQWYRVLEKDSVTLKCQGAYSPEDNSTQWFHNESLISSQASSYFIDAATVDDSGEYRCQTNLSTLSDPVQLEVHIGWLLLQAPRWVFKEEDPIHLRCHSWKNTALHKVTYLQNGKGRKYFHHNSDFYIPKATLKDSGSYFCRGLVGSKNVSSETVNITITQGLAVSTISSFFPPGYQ

[16] = target: T2, SARS-CoV-2-S1-his protein; remark: listed apart in the source
[17] = target: CD64-AVI-His+BirA protein (UniProt P12314 16-288); experiment: ELISA, biotinylated CD64 captured on avidin, titrated antibody
Chain of CD64-AVI-His+BirA protein (P12314 16-288 limits assumed): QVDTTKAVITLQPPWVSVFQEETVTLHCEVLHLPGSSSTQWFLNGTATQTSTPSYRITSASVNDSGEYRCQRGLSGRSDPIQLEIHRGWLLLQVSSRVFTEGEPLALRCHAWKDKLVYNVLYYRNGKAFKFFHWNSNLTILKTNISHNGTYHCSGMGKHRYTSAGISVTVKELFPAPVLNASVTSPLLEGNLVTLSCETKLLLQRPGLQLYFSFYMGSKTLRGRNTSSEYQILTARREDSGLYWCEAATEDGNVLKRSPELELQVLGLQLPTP

B1: human-mouse chimeric antibody CoV2-mhB27 (antibody, V domains shown)
VH: EVKLVESGGGLVKPGGSLKLSCAASGFTFSNYGMSWVRQSPEKRLEWVAEISSGGSYTYYPDTVTGRFTISRDNAKNTLYLEMSSLRSEDTAMYYCARFRYDGGGGTVDYWGQGTSVTVSS
VL: not shown
notes: also called murine antibody CoV2-mhB27
EC50 [1]: 0.044 µg/mL
EC50 [2]: 0.024 µg/mL
neutralization IC50, SARS-CoV-2 pseudovirus on 293FT-ACE2 cells (luciferase) [3]: 0.0087 µg/mL
EC50 [4]: 2.77 µg/mL
EC50 [5]: 0.116 µg/mL
EC50 [6]: 0.307 µg/mL

B2: humanized antibody CoV2-HB27 (antibody)
heavy: not shown
light: EIVLTQSPATLSLSPGERATLSCRASESVDNYGISFMNWFQQKPGQAPRLLIYAASNQGSGVPARFSGSGSGTDFSLTISSLEPEDFAVYFCQQSKEVPRTFGQGTKVEIKRTVAAPSVFIFPPSDEQLKSGTASVVCLLNNFYPREAKVQWKVDNALQSGNSQESVTEQDSKDSTYSLSSTLTLSKADYEKHKVYACEVTHQGLSSPVTKSFNRGEC
notes: also called IgG1 subtype CoV2-HB27 antibody; CoV2-HB27-IgG1
EC50 [7]: 0.972 µg/mL
EC50 [8]: 0.183 µg/mL
Kd [9]: 0.039 nM
koff [9]: 1.4e-05 s⁻¹
kon [9]: 370000 M⁻¹ s⁻¹
binding result [10]: binds
EC50 [11]: 0.0222 µg/mL
binding result [12]: binds
Kd [13]: 0.37 nM
koff [13]: 0.00039 s⁻¹
kon [13]: 1.1e+06 M⁻¹ s⁻¹
neutralization IC50, SARS-CoV-2 pseudovirus on 293FT-ACE2 cells (luciferase) [14]: 0.0059 µg/mL
binding result [15]: binds
EC50 [16]: 0.179 µg/mL

B3: CoV2-HB27-Ae0-IgG1 (antibody)
heavy: not shown
light: EIVLTQSPATLSLSPGERATLSCRASESVDNYGISFMNWFQQKPGQAPRLLIYAASNQGSGVPARFSGSGSGTDFSLTISSLEPEDFAVYFCQQSKEVPRTFGQGTKVEIKRTVAAPSVFIFPPSDEQLKSGTASVVCLLNNFYPREAKVQWKVDNALQSGNSQESVTEQDSKDSTYSLSSTLTLSKADYEKHKVYACEVTHQGLSSPVTKSFNRGEC
notes: also called Ae0-IgG1 form antibody; defucosylated IgG1 subtype CoV2-HB27
binding result [10]: binds
binding result [12]: binds
binding result [15]: binds

B4: CoV2-HB27-Fd6-IgG1 (antibody)
heavy: not shown
light: EIVLTQSPATLSLSPGERATLSCRASESVDNYGISFMNWFQQKPGQAPRLLIYAASNQGSGVPARFSGSGSGTDFSLTISSLEPEDFAVYFCQQSKEVPRTFGQGTKVEIKRTVAAPSVFIFPPSDEQLKSGTASVVCLLNNFYPREAKVQWKVDNALQSGNSQESVTEQDSKDSTYSLSSTLTLSKADYEKHKVYACEVTHQGLSSPVTKSFNRGEC
notes: also called Fd6-IgG1 form antibody; reduced Fc function IgG1 subtype humanized antibody
binding result [10]: no binding
binding result [17]: binds
binding result [12]: no binding
